Measured values as given in patent US20210054097A1 (Novo Nordisk, published 2021).

target: T1, human plasma-derived Factor X zymogen (human, UniProt P00742 41-179; P00742 183-488); test: SPR steady state, Nb captured by anti-His mAb, FX injected
T1 construct: Plasma-derived, bought (Haematologic Technologies); also called FX; human FX
Protocol: Binding of purified anti-FX Nanobodies (Nb) to human plasma-derived FX (Haematologic Technologies Inc, USA) was probed by Surface Plasmon Resonance (SPR) (Biacore T200). Briefly, anti-His mAb (MAB050 from R&D systems) was immobilised on a CM4 sensor chip using standard amine coupling chemistry. Anti-FX Nanobodies (10 nM), according to Table 3, was injected at a flow rate of 10 μL/min for 1 minute. Subsequently 4096, 1024, 256, 64, 16, 4, and 0 nM of FX were injected at a flow rate of 30 μL/min for 4 minutes to allow for binding to anti-FX Nb followed by a 5 minutes running buffer (10 mM HEPES, 150 mM NaCl, 5 mM CaCl₂, 0.05% (v/v) Surfactant P20, 1 mg/mL bovine serum albumin, pH 7.4) injection allowing dissociation from anti-FX Nanobody®. The running buffer was also for dilution of anti-FX Nb and FX samples. Regeneration of the chip was achieved using a regeneration buffer consisting of 3M MgCl₂, 30 seconds contact time, and a 30 μL/min flow rate. The binding data were collected at 25° C. and were analysed according to a 1:1 model using BiaEvaluation 4.1 supplied by the manufacturer (Biacore AB, Uppsala, Sweden).
Therefore, the reported KD values are determined based on steady state analysis. The strongest binder identified is Nb702C12, while the others Nanobodies® tested binds FX with a slightly higher KD and lower Rₘₐₓ.

T1 sequence (P00742 41-179, chain 1 of 2): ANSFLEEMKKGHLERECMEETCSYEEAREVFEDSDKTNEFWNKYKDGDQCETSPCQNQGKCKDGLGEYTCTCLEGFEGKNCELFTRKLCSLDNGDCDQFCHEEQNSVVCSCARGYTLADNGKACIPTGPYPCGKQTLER
T1 sequence (P00742 183-488, chain 2 of 2): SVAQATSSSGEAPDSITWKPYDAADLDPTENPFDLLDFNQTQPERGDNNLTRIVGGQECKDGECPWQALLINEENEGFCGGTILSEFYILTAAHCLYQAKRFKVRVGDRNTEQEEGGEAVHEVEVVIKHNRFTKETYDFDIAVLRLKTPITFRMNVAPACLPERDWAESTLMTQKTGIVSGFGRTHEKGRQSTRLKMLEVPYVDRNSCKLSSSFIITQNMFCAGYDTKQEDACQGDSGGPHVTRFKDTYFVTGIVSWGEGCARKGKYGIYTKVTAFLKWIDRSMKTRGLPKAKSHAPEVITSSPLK

Kd [nM] | Binder
960 | Nb 701C06 (VHH, monovalent Nanobody; not shown: C-terminal FLAG3 and HIS6 tag) VHH: EVQLVESGGGVVQPGGSLRLSCAASGRTFSTYAMGWFRQAPGKEREFVAAISRRGGRTYYADSVKGRFTISRDNSKNTVYLQMNSLRPEDTALYYCAADATARDGLLDYWGQGTLVTVSS
2100 | Nb 701B09 (VHH, monovalent Nanobody; also called Nb 701609; not shown: C-terminal FLAG3 and HIS6 tag) VHH: EVQLVESGGGVVQPGGSLRLSCAASGRTFSTYAMGWFRQAPGKEREFVAAISWSGSRTYYADSVKGRFTISRDNSKNTVYLQMNSLRPEDTALYYCAADATPANGELDYWGQGTLVTVSS
2400 | Nb 701D07 (VHH, monovalent Nanobody; not shown: C-terminal FLAG3 and HIS6 tag) VHH: EVQLVESGGGVVQPGGSLRLSCAASGGTLSRYAMGWFRQAPGKEREFVAAITRRGSRTYYADSVKGRFTISRDNSKNTVYLQMNSLRPEDTALYYCAADLAPGDYALDYWGQGTLVTVSS
1200 | Nb 702C12 (VHH, monovalent Nanobody; not shown: C-terminal FLAG3 and HIS6 tag) VHH: EVQLVESGGGVVQPGGSLRLSCVASGRTFSRYAMGWFRQAPGKEREFVAAISRRGGSTNYADSVKGRFTISRDNSKNTVYLQMNSLRPEDTALYYCAADYSSGDGYLDYWGQGTLVTVSS
